This is an account of results in the supplement of paper PMC9112550, “Optimization of the antimicrobial peptide Bac7 by deep mutational scanning” (BMC Biology, 2022).
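Further: peptides expressed intracellularly from a pBAD plasmid library in pooled LB shake-flask culture, induced with 0.3% L-arabinose, DNA abundance read by NGS, three biological replicates, DESeq2 with apeglm shrinkage.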

This data set deals with Escherichia coli TOP10. As to the kind of experiment: shrunken log2 fold change of peptide-encoding DNA abundance (4.5 h post-induction vs induction); higher = less antimicrobial activity (less host growth inhibition). As to conditions: time post-induction: 4.5 h; library: site-saturation at positions 5, 18, 19, 20.
Take RRIRRRPPRLPRPRPRPMVCPRP: the “shrunken log2 fold change” value was 0.0487.
As for RRIRYRPPRLPRPRPRPQWTPRP, the “shrunken log2 fold change” value is -0.0155.
With RRIRDRPPRLPRPRPRPSDWPRP the figure was 0.137.
Turning to RRIRYRPPRLPRPRPRPFNFPRP, the “shrunken log2 fold change” value is -0.771.
With RRIRHRPPRLPRPRPRPLTDPRP, the “shrunken log2 fold change” value is -0.251.
Turning to RRIRQRPPRLPRPRPRPVWLPRP, the “shrunken log2 fold change” value worked out at 0.2.
With RRIRTRPPRLPRPRPRPLWDPRP, the “shrunken log2 fold change” value is -0.0109.
The result for RRIRKRPPRLPRPRPRPFYSPRP reads 0.00762; that for RRIRNRPPRLPRPRPRPNRSPRP, -0.165; that for RRIRPRPPRLPRPRPRPKKVPRP, 0.0308.
The result for RRIRTRPPRLPRPRPRPPQCPRP reads 0.0145.
Turning to RRIRWRPPRLPRPRPRPLIAPRP, the “shrunken log2 fold change” value worked out at 0.273.
Take RRIRLRPPRLPRPRPRPNFHPRP: the “shrunken log2 fold change” value was -0.301.
Take RRIRPRPPRLPRPRPRPYCIPRP: the “shrunken log2 fold change” value is -0.654.
With RRIRDRPPRLPRPRPRPSPQPRP the figure was 0.204; with RRIRCRPPRLPRPRPRPARIPRP, 0.0785.
With RRIRRRPPRLPRPRPRPNIYPRP, the “shrunken log2 fold change” value was -0.252.
As for RRIRERPPRLPRPRPRPRFIPRP, the “shrunken log2 fold change” value was -0.414.
The result for RRIRVRPPRLPRPRPRPYCNPRP reads -0.501.
With RRIRVRPPRLPRPRPRPNKEPRP the figure was 0.0955; with RRIRTRPPRLPRPRPRPQVSPRP, -0.0699.
The result for RRIRMRPPRLPRPRPRPHPKPRP reads 0.0698.
As for RRIRQRPPRLPRPRPRPMRLPRP, the “shrunken log2 fold change” value was found to be 0.0296.
For RRIRFRPPRLPRPRPRPADWPRP, the “shrunken log2 fold change” value was determined as 0.36.
With RRIRQRPPRLPRPRPRPRRFPRP the figure was 0.222; with RRIRARPPRLPRPRPRPNWIPRP, 0.00102.
The result for RRIRNRPPRLPRPRPRPGIWPRP reads 0.0115.
In the case of RRIRMRPPRLPRPRPRPHWGPRP, the “shrunken log2 fold change” value was 0.12.
The result for RRIRHRPPRLPRPRPRPRLKPRP reads -0.0285; that for RRIRYRPPRLPRPRPRPKCWPRP, 0.14; that for RRIRCRPPRLPRPRPRPVTKPRP, 0.217.
With RRIRDRPPRLPRPRPRPINAPRP the figure was 0.00476; with RRIRSRPPRLPRPRPRPAWQPRP, 0.0367.
The result for RRIRVRPPRLPRPRPRPQMCPRP reads 0.00424; that for RRIRFRPPRLPRPRPRPFVTPRP, -0.442; that for RRIRHRPPRLPRPRPRPYLKPRP, -0.298.
On to RRIRRRPPRLPRPRPRPDEHPRP, for which the “shrunken log2 fold change” value is -0.0368.
With RRIRYRPPRLPRPRPRPVQTPRP, the “shrunken log2 fold change” value was -0.00992.
The result for RRIRYRPPRLPRPRPRPHDSPRP reads -0.08; that for RRIRFRPPRLPRPRPRPCDMPRP, -0.00291.
The result for RRIRFRPPRLPRPRPRPYLAPRP reads -0.425.
The result for RRIRWRPPRLPRPRPRPMCCPRP reads 0.181; that for RRIRYRPPRLPRPRPRPPETPRP, -0.0226.
As to RRIRGRPPRLPRPRPRPWNCPRP, the “shrunken log2 fold change” value is -0.101.
The result for RRIRWRPPRLPRPRPRPFMPPRP reads -0.714.
Turning to RRIRNRPPRLPRPRPRPRKTPRP, the “shrunken log2 fold change” value was -0.0384.
The result for RRIRIRPPRLPRPRPRPETIPRP reads -0.115.
With RRIRKRPPRLPRPRPRPILLPRP the figure was -0.313; with RRIRWRPPRLPRPRPRPLKWPRP, 0.488.
The result for RRIRNRPPRLPRPRPRPNYWPRP reads -0.694.
